Assay [1] deals with T1, NRP1-b1b2 (UniProt O14786 273-586, limits assumed).
T1 construct: domain: b1b2; Negative control antigen
T1 sequence (looked up): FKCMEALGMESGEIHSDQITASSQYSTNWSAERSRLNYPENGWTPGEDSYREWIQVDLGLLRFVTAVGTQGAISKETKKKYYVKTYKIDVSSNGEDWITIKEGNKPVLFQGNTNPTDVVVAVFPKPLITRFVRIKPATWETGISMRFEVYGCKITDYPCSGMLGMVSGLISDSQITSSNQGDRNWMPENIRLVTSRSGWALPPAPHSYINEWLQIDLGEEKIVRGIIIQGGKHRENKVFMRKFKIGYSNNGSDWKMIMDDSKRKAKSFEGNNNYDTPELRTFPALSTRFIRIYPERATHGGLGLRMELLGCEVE
The assay can be described thus: ELISA, coated antigen printed as NRP1.

Assay [2] concerns the target T2, KRS fragment (1-207aa) (human, UniProt Q15046 1-207).
T2 construct: range 1-207; also called purified protein of the KRS fragment (1-207aa); KRS protein
The assay can be described thus: SPR, Biacore T200, antibody amine-coupled on CM5, KRS (1-207aa) as analyte, 25 C.

Assay [3] concerns the target T2, KRS fragment (1-207aa). The assay can be described thus: SPR (Biacore T200), antibody immobilised on CM5, KRS 1-207 flowed at 4.8 to 1250 nM.
For assay [4], the target named is T3, KRS epitope peptide F4.
T3 peptide: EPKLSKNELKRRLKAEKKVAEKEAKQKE
Kind of assay: SPR, Biacore T200, antibody on the chip, peptide F4 as analyte. As to the method:
The SPR experiment was performed using a Biacore T200 (GE Healthcare) equipped with a Series S sensor chip CM5 (GE Healthcare) at 25° C. After the antibody was immobilized on the chip using an amine coupling kit (GE Healthcare), the antigen was diluted 4 times in PBS solution in the range of 4.8 nM-1250 nM and flowed for 60 seconds. Thereafter, PBS was flowed for 300 seconds. The obtained data was analyzed with Biacore T200 Evaluation software v2.0 (GE Healthcare).
After that, PBS was flowed for 2400 seconds. The obtained data was analyzed with Biacore T200 Evaluation software v2.0 (GE Healthcare).

Residue numbers refer to the chain shown, from its start.

The record followed here is patent US20220049016A1 (ZYMEDI, published 2022).

T2 sequence (Q15046 1-207 limits assumed): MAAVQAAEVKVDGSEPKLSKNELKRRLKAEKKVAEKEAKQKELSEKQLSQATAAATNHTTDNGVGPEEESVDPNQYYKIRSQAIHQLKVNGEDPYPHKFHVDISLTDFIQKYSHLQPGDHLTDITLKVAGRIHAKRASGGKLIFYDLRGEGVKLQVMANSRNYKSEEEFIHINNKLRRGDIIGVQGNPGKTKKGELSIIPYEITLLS

B1: N3-8 antibody (IgG) (antibody)
heavy: not shown
light: QSVLTQPPSASGTPGQRVTISCTGSSSNIGSNYVTWYQQLPGTAPKLLIYDNSNRPSGVPDRFSGSKSGTSASLAISGLQSEDEADYYCSSFSDELGAYVFGGGTKLTVLRTVAAPSVFIFPPSDEQLKSGTASVVCLLNNFYPREAKVQWKVDNALQSGNSQESVTEQDSKDSTYSLSSTLTLSKADYEKHKVYACEVTHQGLSSPVTKSFNRGEC
notes: Whole IgG1; also called N3-8 IgG
Consider B1, for which, in assay [1], the binding result is on record as “no binding (tested: 10 nM)”.

B2: N3-1 antibody (IgG) (antibody)
chain 1: EVQLLESGGGLVQPGGSLRLSCAASGFTFSSYDMSWVRQAPGKGLEWVSAISYDNGNTYYADSVKGRFTISRDNSKNTLYLQMNSLRAEDTAVYYSARMALDFDYWGQGTLVTVSS
chain 2: QSVLTQPPSASGTPGQRVTISCTGSSSNIGSNYVTWYQQLPGTAPKLLIYDNSNRPSGVPDRFSGSKSGTSASLAISGLQSEDEADYYCASFSDELGAYVFGGGTKLTVL
B2: in assay [2], the Kd was determined as 31 nM. Besides, in assay [3], the koff was found to be 0.0206 s⁻¹ and the kon amounted to 664000 M⁻¹ s⁻¹.

B3: N3-8-4 antibody (IgG) (antibody, V domains shown)
VH: B2 chain 1 with Y53P, D54Y, N55S, N57R, T58I, S96C, M99L
VL: QSVLTQPPSASGTPGQRVTISCTGSSSNIGSNYVTWYQQLPGTAPKLLIYDNSNRPSGVPDRFSGSKSGTSASLAISGLQSEDEADYYCSSFSDELGAYVFGGGTKLTVLG
notes: Whole IgG1, N3-8 derivative; also called N3-8-4 IgG
Consider B3, for which, in assay [4], the Kd worked out at 10.1 nM, the off-rate (koff) is 0.0009 s⁻¹ and the kon worked out at 89500 M⁻¹ s⁻¹.
